From patent US20200181597A1, “Composition and Application of Arginine-depleting Agents for Cancer, Obesity, Metabolic Disorders, and Related Complications and Comorbidities” (THE HONG KONG POLYTECHNIC UNIVERSITY, priority 2018, published 2020)

Tests used:
[1] = DIO mice treated with 600U for 20 weeks; format: in vivo, C57BL/6J male mice
Excerpt: Together, these findings support that N-ABD094-rhArg (SEQ ID NO: 50) is safe and effective for long term use.

[2] = Prevention of HFD-induced obesity, male mice; format: in vivo, C57BL/6J male mice
Excerpt: To determine the efficacy of N-ABD094-rhArg (SEQ ID NO: 50) in preventing mice from diet-induced obesity and associated metabolic disorders, C57BL/6J male mice were fed a high-fat diet containing 60 kcal % fat (HFD; Research Diets, D12492) from 8 week old for 12 weeks, and concurrently received i.p. injection of 200-300U N-ABD094-rhArg (SEQ ID NO: 50) or saline as vehicle control at 7-day intervals. C57BL/6J mice fed a matched low fat diet containing 10 kcal % fat (LFD; Research Diets, D12450J) and injected with saline served as the lean control of various measurements.
Two cohorts, with n=5 in each group, had been separately conducted. Mice were housed in group of 5. Similar results were obtained in the two independent cohorts. Data of one cohort of mice were summarized in Examples 18-22.

[3] = Normal lean mice on chow diet, 500U at 10-day intervals for 4 weeks; format: in vivo, C57BL/6J male mice
Excerpt: Thus, we treated normal lean C57BL/6J male mice fed an ordinary chow diet via i.p. injection of 500U N-ABD094-rhArg (SEQ ID NO: 50) at 10-day intervals for 4 weeks. After 4 weeks of treatment, there was over 25% reduction of visceral (perigondal, perirenal and mesenteric fad pad) and subcutaneous (inguinal fat pad) fat mass (FIG. 15A) in comparison with the control mice injected with the vehicle (saline).
Obesity is highly associated with insulin resistance. We therefore conducted both in vivo and in vitro study to determine whether N-ABD094-rhArg (SEQ ID NO: 50) treatment will have effects on insulin sensitivity. […] At 24-hour after culture in N-ABD094-rhArg (SEQ ID NO: 50) or control (without addition of N-ABD094-rhArg) medium, primary hepatocytes were stimulated with 100 nM insulin for 20 min. Cells were then collected for Western blot analysis to detect phosphorylated protein kinase B (pAkt), which is commonly used as marker of insulin signaling.

[4] = tested on: mouse 3T3-L1 preadipocytes; test: 3T3-L1 preadipocyte differentiation (oil red O, qRT-PCR); format: cell-based
Procedure: FIG. 23 illustrates that arginine depletion by adding N-ABD094-rhArg (SEQ ID NO: 50) (rhArg), bovine arginase or native arginine deiminase (ADI) to the culture medium, or using arginine-free medium inhibited the differentiation of mouse 3T3-L1 preadipocytes into adipocytes. […] (*The culture medium contains 0.4 mM L-arginine and can be converted into 0.4 mM L-ornithine and 0.4 mM urea by arginase, or 0.4 mM L-citrulline by ADI.). Cells grown in culture medium without addition of arginine depleting agents or metabolic products of arginase/ADI served as the control. Lipids in cells were stained with oil red O at 6 days after exposure to specific differentiation-inducing factors added to the medium.
FIG. 24 illustrates that N-ABD094-rhArg (SEQ ID NO: 50) could suppress adipogenic and lipogenic genes in 3T3-L1 preadipocytes. Mouse 3T3-L1 preadipocytes were cultured for 6 days in medium supplemented with specific factors to induce differentiation into adipocytes (differentiated). Cells grown in medium without these factors remained undifferentiated. The medium was added with 2U/mL N-ABD094-rhArg (SEQ ID NO: 50) (rhArg). Cells grown in medium without the addition of N-ABD094-rhArg served as the control. The mRNA expression levels of several crucial (A) transcriptional regulators of adipogenesis, and (B) enzymes in lipogenic pathways were determined by real-time qRT-PCR, and expressed relative to the undifferentiated (control) group, which is set as 1. *P<0.05, one-way ANOVA followed by Fisher's LSD. Data are expressed as mean±SEM, n=3 for each group.
FIG. 25 illustrates the response of 3T3-L1 preadipocytes to various concentrations of arginine Mouse 3T3-L1 preadipocytes were cultured in arginine-free medium with or without addition of varying concentrations of L-arginine for 6 days. Cells cultured in normal arginine-containing medium supplemented with differentiation inducing factors served as the positive (+ve) control of differentiation, while cells cultured in normal arginine-containing medium without supplementation of differentiation inducing factors served as the negative (−Ve) control of differentiation. One group of cells was cultured in normal arginine-containing medium supplemented with differentiation inducing factors and treated with 5U/mL N-ABD094-rhArg (SEQ ID NO: 50) (rhArg) to inhibit differentiation. (A) Cells were stained for lipids with oil red O, and staining intensity was quantified by measuring optical density, which is expressed as the percentage against the +ve control group. (B) The mRNA levels of several crucial lipogenesis related genes are expressed relative to cells cultured in arginine-free medium, which is set as 1. Data are expressed as mean±SEM, n=3 for each group.
To test the effect of N-ABD094-rhArg (SEQ ID NO: 50) on fat cells, mouse 3T3-L1 preadipocytes were used, which are commonly employed as cell-based model for studying adipogenesis [Green and Meuth, 1974, Cell 3:127-133].

[5] = 500U at 10-day intervals, 4 weeks

mRNA levels of adipogenic transcription factors and lipogenic enzymes ([4]; 2U/mL, 6 days): significantly suppressed
B1: N-ABD094-rhArg: albumin binding domain ABD094 fused N-terminally to recombinant human arginase I, SEQ ID NO: 50 (protein)
chain: MHHHHHHDEAVDANSLAEAKEAANAELDSYGVSDFYKRLIDKAKTVEGVEALKDAILAALPSGSNNNNNNGSGGMSAKSRTIGIIGAPFSKGQPRGGVEEGPTVLRKAGLLEKLKEQECDVKDYGDLPFADIPNDSPFQIVKNPRSVGKASEQLAGKVAEVKKNGRISLVLGGDHSLAIGSISGHARVHPDLGVIWVDAHTDINTPLTTTSGNLHGQPVSFLLKELKGKIPDVPGFSWVTPCISAKDIVYIGLRDVDPGEHYILKTLGIKYFSMTEVDRLGIGKVMEETLSYLLGRKKRPIHLSFDVDGLDPSFTPATGTPVVGGLTYREGLYITEEIYKTGLLSGLDIMEVNPSLGKTPEEVTRTVNTAVAITLACFGLAREGNHKPIDYLNPPK
modifications: Mn2+; N-ABD094-rhArg, Synthesized in the Lab
plasma arginine concentrations ([1]; 600U for 20 weeks, Biochrom 30 detection limit): < 3 µM
bodyweight ([1]; 600U, by 5 weeks, maintained to 20 weeks without rebound): reduced to a level similar to the lean control mice
HFD-induced downregulation of Acox1 in BAT ([2]; 12 weeks HFD): block the downregulation
HFD-induced upregulation of adipogenic transcription factors and lipogenic enzymes in the liver ([2]; 12 weeks HFD): significantly suppress
mRNA of Ucp1 and Pgc1α in BAT ([2]; 12 weeks HFD): significantly upregulated
mRNA of proinflammatory adipokines (Mcp1, Il1b, Tnfa) in perigonadal WAT ([2]; 12 weeks HFD): suppress the upregulation
serum levels of Mcp1 (ELISA) ([2]; 12 weeks HFD): suppress an elevation
weight of kidney, pancreas and heart ([2]; 12 weeks HFD): effectively prevent weight gain
weight gain and expansion of WAT caused by HFD ([2]; 200-300U i.p. at 7-day intervals, 12 weeks, concurrent with HFD): effectively prevented
adipocyte hypertrophy in WAT (histology) ([2]; 200-300U weekly, 12 weeks, HFD): prominently suppressed
mRNA of Pparg, Srebp1c, Acc1, Scd1 in gWAT ([2]; 200-300U weekly, 12 weeks, HFD): dramatic downregulation
mRNA of Pparg, Srebp1c, Acc1, Scd1 in skeletal muscle ([2]; 200-300U weekly, 12 weeks, HFD): significantly downregulated
development of hyperglycemia and hyperinsulinemia (fasting blood glucose, plasma insulin, HOMA-IR) ([2]; concurrent weekly treatment, HFD): completely prevent
development of HFD-induced impaired glucose tolerance (GTT) ([2]; concurrent weekly treatment, GTT at 5 and 10 weeks): completely prevent
development of HFD-induced insulin resistance (ITT) ([2]; concurrent weekly treatment, ITT at 6 and 11 weeks): completely prevent
development of hyperleptinemia, hypercholesterolemia, hypertriglyceridemia, hyper-free fatty acidemia ([2]; fasting plasma at 12 weeks of HFD): completely prevent
mRNA levels of Acc1, Fasn, Scd1 in visceral WAT and liver [3, 5]: dramatically suppressed
size of adipocytes in visceral WAT (histology) [3, 5]: prominent reduction
reduction of visceral and subcutaneous fat mass vs vehicle ([3]; 500U i.p. at 10-day intervals, after 4 weeks): over 25%
insulin sensitivity in insulin tolerance test (ITT) ([3]; after 2 weeks of treatment): significant increase
adipogenesis and lipogenesis in 3T3-L1 cells (oil red O) ([4]; added to culture medium, 6 days of differentiation): effectively inhibit
